Results from patent publication US20240251767A1.
Like-named read-outs stand apart in the source and are kept apart here.

How the values were obtained:
[1] = target: SARS-Cov2 Spike Active Trimer SAT (R&D Systems; Catalog No. 10549-CV) (SARS-CoV2) (UniProt P0DTC2); experiment: SPR (Carterra)
[2] = target: SARS-Cov2 Spike Active Trimer SAT (R&D Systems; Catalog No. 10549-CV) (SARS-CoV2) (UniProt P0DTC2); experiment: ELISA, serially diluted purified Nb-Fc on SAT antigen
[3] = target: SARS-Cov2 Spike Active Trimer SAT (R&D Systems; Catalog No. 10549-CV) (SARS-CoV2) (UniProt P0DTC2)
[4] = target: SARS-Cov2 Spike Active Trimer SAT (R&D Systems; Catalog No. 10549-CV) (SARS-CoV2) (UniProt P0DTC2); experiment: SPR (Biacore)
[5] = target: SARS-Cov2 Spike Active Trimer SAT (R&D Systems; Catalog No. 10549-CV) (SARS-CoV2) (UniProt P0DTC2); remark: listed apart in the source
[6] = target: SARS-CoV-2 Spike (S) protein with an inactivated furin site on HEK293-Spike cells (293-SARS2-S-dfur, (SARS-CoV-2) (UniProt P0DTC2))

human SAT Nb-Fc control VH-Ab-8 (HAb8-S) (Fc fusion)
Kd [1]: 37.3 nM
EC50 [2]: 0.018 nM
Response [3]: 0.489
koff [3]: 0.00294 s⁻¹
kon [3]: 149000 M⁻¹ s⁻¹
Kd [4]: 5.7 nM
Kd [5]: 19.8 nM
GMFI [6]: 430
GMFI Ratio [6]: 21.1
